In US20250043319A1, “BIOSYNTHESIS OF CYCLOLAVANDULYL DERIVATIVES OF AROMATIC COMPOUNDS” (Invizyne Technologies, Inc., priority 2022, published 2025):

What was measured:
Format in all cases: biochemical
Conditions in all cases: cell-free reaction with CLDS and DMAPP (CLPP donor), 28° C., 48 hours, QTOF LC/MS, with vs without prenyltransferase
[1] = cell-free cyclolavandulylation activity screening of prenyltransferases, substrate resveratrol
Description: (§1) Genes encoding the following prenyltransferases were codon-optimized, synthesized, and cloned into the pET28a vector for protein expression and isolation/purification as described in Example 1. • NphB (Accession: 1ZB6_A) (SEQ ID NO: 8) • AbPT (Accession: KPI30840.1) (SEQ ID NO: 9) • SkPT (Accession: Q2L6E3.1) (SEQ ID NO: 10) • SvPT (Accession: WP_078899560.1) (SEQ ID NO: 11) • Sr1310PT (Accession: WP_057602682.1) (SEQ ID NO: 12) • NapT8 (Accession: ABS50461.1) (SEQ ID NO: 13) • NapT9 (Accession: ABS50490.1) (SEQ ID NO: 14) • Mcl23PT (Accession: AGH68908.1) (SEQ ID NO: 15) • CnqP3PT (Accession: WP_047018069.1) (SEQ ID NO: 16) • AtaWTPT (Accession: AMB20850.1) (SEQ ID NO: 17) • MzPT1 (Accession: WP_135330628.1) (SEQ ID NO: 18) • MzPT2 (Accession: WP_135330626.1) (SEQ ID NO: 19) B. Cell-Free Biosynthesis Reaction with CLPP and Various Aromatic Substrates
(§2) The cyclolavandulyl diphosphate synthase, CLDS was prepared as described in Example 1 and used in the synthesis of CLPP.
(§3) Stocks of the various aromatic compounds used as substrates for cyclolavandulylation activity screening were obtained from the following commercial sources: • Resveratrol (Fisher Scientific) 200 mM stock in DMSO • Luteolin (Fisher Scientific) 200 mM stock in DMSO • Naringenin (Fisher Scientific) 200 mM stock in DMSO • Tryptamine (Fisher Scientific) 200 mM stock in DMSO • Tryptophan (Fisher Scientific) 40 mM stock in water • Olivetolic acid (Toronto Research Chemicals) 200 mM stock in DMSO • Divarinic acid (Toronto Research Chemicals) 200 mM stock in DMSO • Phorolic acid (prepared in house) 200 mM stock in DMSO • Olivetol (Fisher Scientific) 200 mM stock in DMSO • Screening for cell-free biosynthesis was carried out as follows. 10 mM DMAPP, 5 mM MgCl2, 100 mM Tris-HCl (pH=8), and 4 mg/mL CLDS (SEQ ID NO: 4) were combined in a 6.80 mL reaction, which was incubated at 28° C. for 48 hours. This mixture was aliquoted into a 96-well plate (80 μL per well). The various prenyltransferases (18 μL, ˜1 g/L final concentration) listed above were screened across various substrates (2 μL of stock solution, variable concentration shown above), which were added to the wells and incubated at 28° C. for an additional 48 hours.
(§4) Analysis of the reaction mixture was carried out as follows: 50 μL of the reaction mixture were added to 1 mL MeOH. The resulting solution was vortexed, centrifuged at 17,200 g for 5 minutes, and transferred to an HPLC vial for analysis. HRMS-QTOF analyses of the cell free reactions was performed on an Agilent Technologies 6545 Accurate Mass QTOF LC/MS with a reverse-phase column (Agilent Infinity Lab Poroshell 120 ECC18, 2.7 μm, 3.0×50 mm) using positive ESI with 1% MeCN—H2O (0.1% FA) for 2 min followed by a linear gradient of 1-99% MeCN—H2O (0.1% FA) for 14 min with a flow rate of 0.4 mL/min.
(§5) Mass spectrometric (MS) analysis of chromatograms was carried out using MassHunter Qualitative Analysis 10.0. Targeted metabolomics using the exact m/z of the calculated proton adduct [H^+] in the presence and absence of prenyltransferase indicated the presence of cyclolavandulylated product.

[2] = cell-free cyclolavandulylation activity screening of prenyltransferases, substrate luteolin
Description: as §1, §2, §3, §4, §5

[3] = cell-free cyclolavandulylation activity screening of prenyltransferases, substrate naringenin
Description: as §1, §2, §3, §4, §5

[4] = cell-free cyclolavandulylation activity screening of prenyltransferases, substrate tryptamine
Description: as §1, §2, §3, §4, §5

[5] = cell-free cyclolavandulylation activity screening of prenyltransferases, substrate tryptophan
Description: as §1, §2, §3, §4, §5

[6] = cell-free cyclolavandulylation activity screening of prenyltransferases, substrate olivetolic acid
Description: as §1, §2, §3, §4, §5

B1: Sr1310PT: prenyltransferase, Accession: WP_057602682.1, SEQ ID NO: 12 (protein, listed as Streptomyces sp.)
chain: MSGAADVERVYAAMEEAAGLLDVSCAREKIYPLLTVFQDTLTDGVVVFSMASGRRSTELDFSISVPVSQGDPYATVVKEGLFQATGSPVDELLADTVAHLPVSMFAIDGEVTGGFKKTYAFFPTDDMPGVAQLAAIPSMPASVAENAELFARYGLDKVQMTSMDYKKRQVNLYFSDLKQEYLQPESVVALARELGLRVPGELGLEFCKRSFAVYPTLNWDTGKIDRLCFAAISTDPTLVPSEDERDIEMFRNYATKAPYAYVGEKRTLVYGLTLSSTEEYYKLGAYYHITDIQRQLLKAFDALED
No: presence of cyclolavandulylated product, Aromatic Compound (Substrate) Resveratrol [1] | presence of cyclolavandulylated product, Aromatic Compound (Substrate) Luteolin [2] | presence of cyclolavandulylated product, Aromatic Compound (Substrate) Naringenin [3] | presence of cyclolavandulylated product, Aromatic Compound (Substrate) Tryptamine [4] | presence of cyclolavandulylated product, Aromatic Compound (Substrate) Tryptophan [5] | presence of cyclolavandulylated product, Aromatic Compound (Substrate) Olivetolic Acid [6]

B2: Mcl23PT: prenyltransferase, Accession: AGH68908.1, SEQ ID NO: 15 (protein, listed as Streptomyces sp.)
chain: MSGETDAEELCSAIEETARLVGAPCSREKIWPILTEYRSGFAEGGVVFSAQAGENHAGELDYGLAVPPRIDDPYAHALAHGFVTETDHPVAALLSDIRERCAVTEHFADCGVVGGFRKLYAHFPRDLQKVSEIADIPSMPRAVAENVGLFTRYGLENVVMVGVNYKNKTVSLYFQFTAEGRPRPSAIRSMLGDIGMTEPNERMLDFASNSFRANITLSWDSPKILRVAFAPPPGAGLNLSTVPIPTGPHLEDFVTRAPRAYDGERMNLFAVKWTQDKEFLEVCSYYQLPAGYEPIRQMEIHKEQG
No: presence of cyclolavandulylated product, Aromatic Compound (Substrate) Resveratrol [1] | presence of cyclolavandulylated product, Aromatic Compound (Substrate) Luteolin [2] | presence of cyclolavandulylated product, Aromatic Compound (Substrate) Naringenin [3] | presence of cyclolavandulylated product, Aromatic Compound (Substrate) Tryptamine [4] | presence of cyclolavandulylated product, Aromatic Compound (Substrate) Tryptophan [5] | presence of cyclolavandulylated product, Aromatic Compound (Substrate) Olivetolic Acid [6]

B3: MzPT2: prenyltransferase, Accession: WP_135330626.1, SEQ ID NO: 19 (protein, listed as Streptomyces sp.)
chain: MSGTAVEKLYSAIEETAGLLDVTCSRDKVWPVLASFEDAIPQAAILFRVATDKRHAGELNLHFMMLPGDVDPYALALSNDLMAKTEHPVGSLLSDIAERFPVESYGIDFGVVKGFQKTWSCFPGNSMQSLSKLAEVPSVPSSLAGNLDFFSRYGLDENVTLVGIDFEHRTMNVYFGEVAELLEPDAVKSMLRDLEMPEPSEQLLNFAKQSFGFYATLSWDSPRIERFCYAAIAPDPMALLDQVEPKIEHFLKTVPYGVDDPKAVYAATSPNDGEFYKIQSYYQWRPRLVNHMHTSVSDSGE
No: presence of cyclolavandulylated product, Aromatic Compound (Substrate) Resveratrol [1] | presence of cyclolavandulylated product, Aromatic Compound (Substrate) Luteolin [2] | presence of cyclolavandulylated product, Aromatic Compound (Substrate) Naringenin [3] | presence of cyclolavandulylated product, Aromatic Compound (Substrate) Tryptamine [4] | presence of cyclolavandulylated product, Aromatic Compound (Substrate) Tryptophan [5] | presence of cyclolavandulylated product, Aromatic Compound (Substrate) Olivetolic Acid [6]

B4: CnqP3PT: prenyltransferase, Accession: WP_047018069.1, SEQ ID NO: 16 (protein, listed as Streptomyces sp.)
chain: MSGAADVERVYSAMEEAARLLDITVSREKVRPALEAYHEVLADAVVVFSMASGRYATELDFSISVPAEAGDPYRVALAKGLTPRTDHPVGRLLADTQEHCPVSMFAFDGEITGGFKKTYAFFPTNDLQSASKLAEIPSMPDSVKENADLFARYGLDKVQMTSIDYKKKAVNLYFSEMSPDILGPDTVRSMLRDMGLKETGETGLTFARRSFSVYPTLNWETGRIERLCFAVISRDPTLAPAERAEDLAKFSKYANNAPYAYAGEARTLVYGLTLTPREEYYKLGSYYQISDIQRKLLKAFDSLND
No: presence of cyclolavandulylated product, Aromatic Compound (Substrate) Resveratrol [1] | presence of cyclolavandulylated product, Aromatic Compound (Substrate) Luteolin [2] | presence of cyclolavandulylated product, Aromatic Compound (Substrate) Naringenin [3] | presence of cyclolavandulylated product, Aromatic Compound (Substrate) Tryptamine [4] | presence of cyclolavandulylated product, Aromatic Compound (Substrate) Tryptophan [5] | presence of cyclolavandulylated product, Aromatic Compound (Substrate) Olivetolic Acid [6]

B5: SkPT: prenyltransferase, Accession: Q2L6E3.1, SEQ ID NO: 10 (protein, listed as Streptomyces sp.)
chain: MPGTDDVAVDVASVYSAIEKSAGLLDVTAAREVVWPVLTAFEDVLEQAVIAFRVATNARHEGDFDVRFTVPEEVDPYAVALSRSLIAKTDHPVGSLLSDIQQLCSVDTYGVDLGVKSGFKKVWVYFPAGEHETLARLTGLTSMPGSLAGNVDFFTRYGLADKVDVIGIDYRSRTMNVYFAAPSECFERETVLAMHRDIGLPSPSEQMFKFCENSFGLYTTLNWDTMEIERISYGVKTENPMTFFARLGTKVEHFVKNVPYGVDTQKMVYAAVTSSGEEYYKLQSYYRWRSVSRLNAAYIAARDKEST
No: presence of cyclolavandulylated product, Aromatic Compound (Substrate) Resveratrol [1] | presence of cyclolavandulylated product, Aromatic Compound (Substrate) Luteolin [2] | presence of cyclolavandulylated product, Aromatic Compound (Substrate) Naringenin [3] | presence of cyclolavandulylated product, Aromatic Compound (Substrate) Tryptamine [4] | presence of cyclolavandulylated product, Aromatic Compound (Substrate) Tryptophan [5] | presence of cyclolavandulylated product, Aromatic Compound (Substrate) Olivetolic Acid [6]

B6: NapT8: prenyltransferase, Accession: ABS50461.1, SEQ ID NO: 13 (protein, listed as Streptomyces aculeolatus)
chain: MEGLYAAIEEASGLLDVAPSRDKVWPILSAYELDKVVVAFRVTTRGSKDLDCRFTALPADVNPYRYAVSKGIAEATDHPVGTLLDDVQANIPVTAHGVDFGVVEGFRKTWTFLPGNDLQKLSKVAALPSMPPSLAENLDFYARYGLDDKNSMIGIDYPSRTVNVYFLQFPDETREPETVRAMLRDLGLPEPSEQMLTLAKQAVGIYTTLTWDSPKIQRITFATLVPDAEALPGRIAVEPSVEKFARNVPHTYPGPVQGLYNVASYSGGEYFKLQTYHQLAEGSLEARVLLGAAGAGS
No: presence of cyclolavandulylated product, Aromatic Compound (Substrate) Resveratrol [1] | presence of cyclolavandulylated product, Aromatic Compound (Substrate) Luteolin [2] | presence of cyclolavandulylated product, Aromatic Compound (Substrate) Naringenin [3] | presence of cyclolavandulylated product, Aromatic Compound (Substrate) Tryptamine [4] | presence of cyclolavandulylated product, Aromatic Compound (Substrate) Tryptophan [5] | presence of cyclolavandulylated product, Aromatic Compound (Substrate) Olivetolic Acid [6]

B7: SvPT: prenyltransferase, Accession: WP_078899560.1, SEQ ID NO: 11 (protein, listed as Streptomyces sp.)
chain: MSEASELADIYSAIEETAQLLDVPCSRDKVQPALAAFGDGLADAHIVFSMATGERYKGELAFDFTVPTAAGDPYAIALANGLVEETDHPIRTLFSDVQKRCPVDSYGVDYGIVGGFKKTYISFPLGDLQRLSALVGIPSMPRALAEHADFFASHGLDDKVSAIAIDYAHRTWNVYFSGIPAEVKEPQTLQSVLQKFGLPEPSEQLMDFIRTSFAMYTTFGWDSTKAERICFSARSSDPTALPAQFEPQIGKFAKSAPYTYTGERVLTYAGALSPSEEFYKLATFYQKTSKLSDRVRPAT
No: presence of cyclolavandulylated product, Aromatic Compound (Substrate) Resveratrol [1] | presence of cyclolavandulylated product, Aromatic Compound (Substrate) Luteolin [2] | presence of cyclolavandulylated product, Aromatic Compound (Substrate) Naringenin [3] | presence of cyclolavandulylated product, Aromatic Compound (Substrate) Tryptamine [4] | presence of cyclolavandulylated product, Aromatic Compound (Substrate) Tryptophan [5] | presence of cyclolavandulylated product, Aromatic Compound (Substrate) Olivetolic Acid [6]
